Among the data in the supplement of paper PMC10567573 are protein stability index values, retold here.

B1: FAM164C (parent)
chain: YPHCTGISQQDPESDSQGQGNGLF
B2: C2CD2L (parent)
chain: EPAGSLRELGVWRSLLRLRATRAG
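Also: lentivirally expressed fusions sorted by FACS into six bins by GFP to DsRed ratio, PSI derived from sequencing read proportions per bin multiplied by bin number.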

Variants of B1 are the subject of one data set. The data set can be described thus: protein stability index of a GFP-peptide fusion (GPS, HEK-293T) (PSI 1-6); higher = more stable. Particulars: c terminus: a fixed tail appended.
As to YPHCTGISQQDPESDSQGQGNGYF [L23Y], the protein stability index was 4.26.

As for YPHCTGISQQDPESDSQGQGNGAF [L23A], the protein stability index amounted to 4.35.

For YPHCTGISQQDPESDSQGQGNGSF [L23S], the protein stability index was 4.6.

Regarding YPHCTGISQQDPESDSQGQGNGNF [L23N], the protein stability index stood at 4.38.

YPHCTGISQQDPESDSQGQGNGWF [L23W]: the protein stability index was 2.97.

As to YPHCTGISQQDPESDSQGQGNGHF [L23H], the protein stability index was 4.89.

For YPHCTGISQQDPESDSQGQGNGGF [L23G], the protein stability index was determined as 4.99.

In the case of YPHCTGISQQDPESDSQGQGNGTF [L23T], the protein stability index is 4.71.

YPHCTGISQQDPESDSQGQGNGIF [L23I]: the protein stability index came to 3.97.

Turning to YPHCTGISQQDPESDSQGQGNGMF [L23M], the protein stability index came out at 4.21.

For the variant YPHCTGISQQDPESDSQGQGNGCF [L23C], the protein stability index was found to be 4.62.

Consider YPHCTGISQQDPESDSQGQGNGQF [L23Q], for which the protein stability index came out at 4.75.

Take YPHCTGISQQDPESDSQGQGNGEF [L23E]: the protein stability index was determined as 5.27.

YPHCTGISQQDPESDSQGQGNGKF [L23K]: the protein stability index stood at 4.76.

Consider YPHCTGISQQDPESDSQGQGNGFF [L23F], for which the protein stability index came to 3.15.

Regarding YPHCTGISQQDPESDSQGQGNGPF [L23P], the protein stability index is 4.48.

In the case of YPHCTGISQQDPESDSQGQGNGVF [L23V], the protein stability index amounted to 3.87.

As to YPHCTGISQQDPESDSQGQGNGRF [L23R], the protein stability index amounted to 4.63.

On to YPHCTGISQQDPESDSQGQGNGDF [L23D], for which the protein stability index was 4.93.

Turning to YPHCTGISQQDPESDSQGQHNGLF [G20H], the protein stability index is 3.08.

In the case of YPHCTGISQQDPESDSQGQWNGLF [G20W], the protein stability index is 2.35.

As for YPHCTGISQQDPESDSQGQMNGLF [G20M], the protein stability index stood at 3.9.

Consider YPHCTGISQQDPESDSQGQPNGLF [G20P], for which the protein stability index was determined as 3.59.

As for YPHCTGISQQDPESDSQGQSNGLF [G20S], the protein stability index came out at 3.79.

Consider YPHCTGISQQDPESDSQGQFNGLF [G20F], for which the protein stability index came out at 2.56.

As to YPHCTGISQQDPESDSQGQLNGLF [G20L], the protein stability index amounted to 3.11.

For the variant YPHCTGISQQDPESDSQGQINGLF [G20I], the protein stability index amounted to 3.02.

Regarding YPHCTGISQQDPESDSQGQVNGLF [G20V], the protein stability index stood at 3.44.

In the case of YPHCTGISQQDPESDSQGQNNGLF [G20N], the protein stability index was found to be 3.48.

With YPHCTGISQQDPESDSQGQKNGLF [G20K], the protein stability index was found to be 3.66.

With YPHCTGISQQDPESDSQGQRNGLF [G20R], the protein stability index is 3.65.

For YPHCTGISQQDPESDSQGQTNGLF [G20T], the protein stability index is 3.33.

As for YPHCTGISQQDPESDSQGQYNGLF [G20Y], the protein stability index worked out at 2.03.

As for YPHCTGISQQDPESDSQGQQNGLF [G20Q], the protein stability index stood at 3.79.

Turning to YPHCTGISQQDPESDSQGQGFGLF [N21F], the protein stability index worked out at 2.62.

YPHCTGISQQDPESDSQGQGSGLF [N21S]: the protein stability index turned out to be 3.78.

YPHCTGISQQDPESDSQGQGKGLF [N21K]: the protein stability index amounted to 3.77.

Consider YPHCTGISQQDPESDSQGQGEGLF [N21E], for which the protein stability index amounted to 4.86.

For YPHCTGISQQDPESDSQGQGVGLF [N21V], the protein stability index is 3.54.

On to YPHCTGISQQDPESDSQGQGTGLF [N21T], for which the protein stability index was 4.04.

In the case of YPHCTGISQQDPESDSQGQGMGLF [N21M], the protein stability index was 3.35.

As for YPHCTGISQQDPESDSQGQGAGLF [N21A], the protein stability index was 3.83.

With YPHCTGISQQDPESDSQGQGYGLF [N21Y], the protein stability index turned out to be 3.02.

For YPHCTGISQQDPESDSQGQGHGLF [N21H], the protein stability index is 3.75.

With YPHCTGISQQDPESDSQGQGPGLF [N21P], the protein stability index came to 3.99.

Consider YPHCTGISQQDPESDSQGQGCGLF [N21C], for which the protein stability index stood at 3.65.

Regarding YPHCTGISQQDPESDSQGQGQGLF [N21Q], the protein stability index amounted to 4.07.

For YPHCTGISQQDPESDSQGQGLGLF [N21L], the protein stability index came to 3.41.

Turning to YPHCTGISQQDPESDSQGQGWGLF [N21W], the protein stability index was determined as 2.35.

For YPHCTGISQQDPESDSQGQGIGLF [N21I], the protein stability index was 3.25.

For the variant YPHCTGISQQDPESDSQGQGGGLF [N21G], the protein stability index is 3.5.

Consider YPHCTGISQQDPESDSQGQGDGLF [N21D], for which the protein stability index amounted to 4.5.

For YPHCTGISQQDPESDSQGQGRGLF [N21R], the protein stability index was 3.55.

For the variant YPHCTGISQQDPESDSQGQGNGLC [F24C], the protein stability index worked out at 4.73.

On to YPHCTGISQQDPESDSQGQGNGLD [F24D], for which the protein stability index came to 4.44.

YPHCTGISQQDPESDSQGQGNGLN [F24N]: the protein stability index worked out at 5.06.

For the variant YPHCTGISQQDPESDSQGQGNGLM [F24M], the protein stability index stood at 4.55.

As to YPHCTGISQQDPESDSQGQGNGLK [F24K], the protein stability index is 5.12.

With YPHCTGISQQDPESDSQGQGNGLP [F24P], the protein stability index came to 4.64.

As for YPHCTGISQQDPESDSQGQGNGLH [F24H], the protein stability index amounted to 4.81.

As for YPHCTGISQQDPESDSQGQGNGLY [F24Y], the protein stability index amounted to 3.87.

In the case of YPHCTGISQQDPESDSQGQGNGLE [F24E], the protein stability index was found to be 5.

As to YPHCTGISQQDPESDSQGQGNGLI [F24I], the protein stability index was 4.82.

Consider YPHCTGISQQDPESDSQGQGNGLA [F24A], for which the protein stability index was determined as 3.89.

Turning to YPHCTGISQQDPESDSQGQGNGLR [F24R], the protein stability index was determined as 5.01.

Consider YPHCTGISQQDPESDSQGQGNGLT [F24T], for which the protein stability index is 5.13.

On to YPHCTGISQQDPESDSQGQGNGLS [F24S], for which the protein stability index stood at 5.04.

YPHCTGISQQDPESDSQGQGNGLG [F24G]: the protein stability index worked out at 4.82.

For YPHCTGISQQDPESDSQGQGNGLL [F24L], the protein stability index is 4.77.

For the variant YPHCTGISQQDPESDSQGQGNGLW [F24W], the protein stability index stood at 2.23.

For the variant YPHCTGISQQDPESDSQGQGNGLV [F24V], the protein stability index amounted to 4.41.

With YPHCTGISQQDPESDSQGQGNGLQ [F24Q], the protein stability index was found to be 5.

As to YPHCTGISQQDPESDSQGQGNELF [G22E], the protein stability index came out at 3.76.

As for YPHCTGISQQDPESDSQGQGNILF [G22I], the protein stability index came out at 3.22.

YPHCTGISQQDPESDSQGQGNDLF [G22D]: the protein stability index turned out to be 4.03.

Turning to YPHCTGISQQDPESDSQGQGNPLF [G22P], the protein stability index came to 3.95.

For YPHCTGISQQDPESDSQGQGNHLF [G22H], the protein stability index was determined as 2.97.

YPHCTGISQQDPESDSQGQGNQLF [G22Q]: the protein stability index is 3.44.

With YPHCTGISQQDPESDSQGQGNTLF [G22T], the protein stability index was 3.65.

Take YPHCTGISQQDPESDSQGQGNALF [G22A]: the protein stability index was 3.78.

Turning to YPHCTGISQQDPESDSQGQGNSLF [G22S], the protein stability index is 3.57.

As for YPHCTGISQQDPESDSQGQGNRLF [G22R], the protein stability index is 3.78.

In the case of YPHCTGISQQDPESDSQGQGNCLF [G22C], the protein stability index came to 3.16.

On to YPHCTGISQQDPESDSQGQGNFLF [G22F], for which the protein stability index was determined as 2.94.

As for YPHCTGISQQDPESDSQGQGNLLF [G22L], the protein stability index is 2.87.

Take YPHCTGISQQDPESDSQGQGNYLF [G22Y]: the protein stability index is 3.03.

YPHCTGISQQDPESDSQGQGNKLF [G22K]: the protein stability index turned out to be 3.96.

For YPHCTGISQQDPESDSQGQGNNLF [G22N], the protein stability index came out at 2.91.

With YPHCTGISQQDPESDSQGQGNWLF [G22W], the protein stability index was 2.04.

As for YPHCTGISQQDPESDSQGQGNMLF [G22M], the protein stability index amounted to 2.96.

As to YPHCTGISQQDPESDSQGQGNVLF [G22V], the protein stability index was 3.73.

The variants in another data set derive from B2. The description is as above. Particulars: c terminus: a fixed tail appended.
Regarding EPAGSLRELGVWRSLLRLRAVRAG [T21V], the protein stability index came to 1.7.

With EPAGSLRELGVWRSLLRLIATRAG [R19I], the protein stability index was found to be 2.24.

On to EPAGSLRELGVWRSLLRLRATKAG [R22K], for which the protein stability index came out at 2.66.
